According to article doi:10.1101/2025.11.26.690765:

Target: 4-1BB (Acro) (Homo sapiens (assumed)) (UniProt Q07011)
Assay: SPR

Kd: 8 nM
Substance: Urelumab, variable domains in human IgG1 expression vectors (antibody)
